Measurements reported in patent US12398194.
Each block holds one binder with its values, some of them ahead of it.

Columns and labels:
CD22 (human) = CD22 (human) (UniProt P20273); experiment: SPR (Biacore T200), scFv-Fc captured on an anti-IgG CM5 chip, interaction partner injected, 1:1 Langmuir fit
CD19 (human) = CD19 (human) (UniProt P15391); experiment: as above
Sequence of CD19 (human) (P15391 21-278 limits assumed): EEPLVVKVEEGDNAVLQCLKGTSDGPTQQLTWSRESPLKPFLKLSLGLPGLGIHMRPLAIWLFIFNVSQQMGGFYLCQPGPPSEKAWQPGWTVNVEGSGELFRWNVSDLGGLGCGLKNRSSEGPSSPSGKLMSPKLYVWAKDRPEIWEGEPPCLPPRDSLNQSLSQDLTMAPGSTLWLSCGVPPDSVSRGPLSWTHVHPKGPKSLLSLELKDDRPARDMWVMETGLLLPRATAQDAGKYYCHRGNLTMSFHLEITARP

- Kd (CD22 (human)): 32 nM
- koff (CD22 (human)): 0.00226 s⁻¹
- kon (CD22 (human)): 68300 M⁻¹ s⁻¹
B1: humanized CD22ALAb scFv (scFv, part only; not given: VH-VL linker and Fc, not shown: another chain or arm of the molecule; a dimerising Fc or GST; small tags and cut ends)
scFv: EVQLVESGAEVKKPGSSVKVSCKASGYTFTNYWINWVRQAPGQGLEWIGNIYPSDSFTNYNQKFKDRATLTVDKSTSTAYLELRNLRSDDTAVYYCTRDTQERSWYFDVWGQGTLVTVSSDIVMTQSPATLSVSPGERATLSCRSSQSLVHSNGNTYLHWYQQKPGQAPRLLIYKVSNRFSGVPARFSGSGSGVEFTLTISSLQSEDFAVYYCSQSTHVPWTFGQGTRLEIK

- koff (CD19 (human)): 0.000328 s⁻¹
- kon (CD19 (human)): 178000 M⁻¹ s⁻¹
B2: murine CD19ALAb scFv (scFv, part only; not given: VH-VL linker and Fc, not shown: another chain or arm of the molecule; a dimerising Fc or GST; small tags and cut ends)
scFv: QVQLQQSGAELVRPGSSVKISCKASGYAFSSYWMNWVKQRPGQGLEWIGQIWPGDGDTNYNGKFKGKATLTADESSSTAYMQLSSLASEDSAVYFCARRETTTVGRYYYAMDYWGQGTTVTVSSDIQLTQSPASLAVSLGQRATISCKASQSVDYDGDSYLNWYQQIPGQPPKLLIYDASNLVSGIPPRFSGSGSGTDFTLNIHPVEKVDAATYHCQQSTEDPWTFGGGTKLEIK
